# From paper PMC4082471 (ChemMedChem, 2014)
# Key:
# [1] = Stability in aqueous buffer and organic solvents by NMR; assay type: physicochemical
# [2] = Solubility in aqueous buffer by 1H NMR; assay type: physicochemical; details: for solubility compared to that of PTX alone: qualitative
# [3] = literature value, ref not given; cited from earlier work
# [4] = heparinized rat plasma, 400 μM compound, 37 °C, 1D 1H NMR 600 MHz
molecule,measurement,setting,value
YSAYPDSVPMMS [YSA-L1-PTX],stability in organic solvents,[1]; DMSO or methanol,very stable
same,time within which degradation of the linker in buffer is observed,[1]; aqueous buffer,≤ 10 min
YSAYPDSVPMMS [YSA-L2-PTX],solubility compared to that of PTX alone,[2],increased solubility
"CC(=O)O[C@H]1C(=O)[C@@]2(C)[C@H]([C@H](OC(=O)c3ccccc3)[C@]3(O)C[C@H](OC(=O)[C@H](O)[C@@H](NC(=O)c4ccccc4)c4ccccc4)C(C)=C1C3(C)C)[C@]1(OC(C)=O)CO[C@@H]1C[C@@H]2O [PTX, paclitaxel]",solubility in aqueous buffer,[2]; assessed from 1H NMR spectra in aqueous buffer,below 10 μM
same,aqueous solubility,[3],< 0.01 mg/mL
same,log P,[3],3.96
DYPSMAMYSPSV [DYP-L2-PTX],solubility compared to that of PTX alone,[2],increased solubility
ySAYPDSVP(L-Norleucine)(L-Homoserine)S [dYNH-L2-PTX],solubility compared to that of PTX alone,[2],increased solubility
same,degradation after 8 hours incubation with plasma,[4],d-Tyr1 does not appear to be degraded
